Laboratory results reported in patent US20130136748A1 (Ablynx, published 2013).
“And” between values parts separate entries of the source, which are not always exact repeats. Equal values may be shown once.

Experiments:
[1] = target: T1, human HER3-Fc (R&D Systems, 348-RB) (human, UniProt P21860 20-643); test: 34C07 competition alphascreen
T1 construct: Bought; also called hHER3-Fc; Fc-HER3; Fc part of the bought chimera not given, not described

[2] = target: T1, human HER3-Fc (R&D Systems, 348-RB); test: SPR, HER3-Fc captured; heterogenous curve, main interaction (84%)
[3] = target: T2, hHER3 ECD (human HER3 extracellular domain) (human, UniProt P21860 20-643); test: ELISA, coated hHER3-ECD
T2 construct: also called recombinant HER3-ECD

hHER3 full length [4] = target: T3, hHER3 full length (human, UniProt P21860 20-1342); test: FACS, 400 nM, competitor 21B02-biotin
T3 construct: On transfected CHO, CHO HER2/HER3, CHO EGFR/HER3 or CHO Flp-In cells; endogenous HER3 of MCF-7 and MDA-MB468 cells in the signalling assays; also called human HER3

hHER3 full length [5] = target: T3, hHER3 full length; test: FACS, 400 nM, competitor 04F10-biotin
[6] = target: T2, hHER3 ECD (human HER3 extracellular …); test: off rate on recombinant HER3-ECD, periplasmic extract
[7] = target: T4, cHER3ECD (Maccaca fascicularis HER3 extracellular domain) (Macaca fascicularis, UniProt P21860 20-643 (human entry)); test: ELISA, coated cHER3-ECD
T4 construct: also called cyno HER3ECD; cyno HER3-ECD
T4 chain: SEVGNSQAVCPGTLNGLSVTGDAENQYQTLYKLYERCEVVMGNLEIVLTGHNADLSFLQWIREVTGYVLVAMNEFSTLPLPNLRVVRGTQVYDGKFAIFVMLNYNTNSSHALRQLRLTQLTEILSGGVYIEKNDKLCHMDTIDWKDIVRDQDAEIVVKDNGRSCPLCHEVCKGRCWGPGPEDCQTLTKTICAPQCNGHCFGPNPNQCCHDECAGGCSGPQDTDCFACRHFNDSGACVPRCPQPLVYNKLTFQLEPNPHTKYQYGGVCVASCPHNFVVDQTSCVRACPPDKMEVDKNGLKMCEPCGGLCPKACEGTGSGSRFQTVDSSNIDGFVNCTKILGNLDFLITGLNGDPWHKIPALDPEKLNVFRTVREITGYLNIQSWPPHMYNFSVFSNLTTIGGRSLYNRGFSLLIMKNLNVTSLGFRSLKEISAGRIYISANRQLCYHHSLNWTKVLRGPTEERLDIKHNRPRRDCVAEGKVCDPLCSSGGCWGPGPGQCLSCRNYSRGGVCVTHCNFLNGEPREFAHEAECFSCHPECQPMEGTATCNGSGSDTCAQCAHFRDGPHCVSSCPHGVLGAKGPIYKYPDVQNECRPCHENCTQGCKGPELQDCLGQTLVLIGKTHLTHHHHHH

hHER3 full length [8] = target: T3, hHER3 full length; test: FACS, 400 nM, competitor 18E08-biotin
hHER3 full length [9] = target: T3, hHER3 full length; test: cell-based or functional assay
hHER3 full length [10] = target: T3, hHER3 full length; test: cell-based or functional assay; remark: listed apart in the source
hHER3 full length [11] = target: T3, hHER3 full length; test: FACS, 400 nM, competitor 23F05-biotin
[12] = target: T1, human HER3-Fc (R&D Systems, 348-RB); test: HRG competition alphascreen
[13] = target: T2, hHER3 ECD (human HER3 extracellular …); test: SPR off rate on HER3-ECD
hHER3 full length [14] = target: T3, hHER3 full length; test: FACS, 400 nM, competitor 04C07-biotin
hHER3 full length [15] = target: T3, hHER3 full length; test: FACS, 400 nM, competitor 17C08-biotin
hHER3 full length [16] = target: T3, hHER3 full length; test: cell-based or functional assay; remark: listed apart in the source
[17] = target: T1, human HER3-Fc (R&D Systems, 348-RB); test: HRG blocking alphascreen
[18] = target: T1, human HER3-Fc (R&D Systems, 348-RB); test: HRG competition alphascreen; remark: listed apart in the source

B1: 34C07 (VHH)
VHH: EVQLVESGGGLVQPGGSLGLSCVASGSIFRINAMAWYRQAPGKQRELVAEITAGGSTNYADSVKGRFTISVDNAWNTLYLQMNSLKVEDTAVYYCNLDHYTTWDRRSAYWGQGTQVTVSS
notes: c-myc, His6-tagged form as expressed; also called 34C7; HER3MS34C07
[1]
  IC50: 5.5 nM
[2]
  Kd: 14 nM
  kon: 18000 M⁻¹ s⁻¹
[3]
  EC50: 0.46 nM
hHER3 full length [4]
  % competition: 6%
hHER3 full length [5]
  % competition: 0%
[6]
  koff: 0.00037 s⁻¹ and 0.00039 s⁻¹
[7]
  EC50: 0.43 nM
hHER3 full length [8]
  % competition: 99%
hHER3 full length [9]
  IC50, HRG1-β1 induced pHER3, MCF-7: 1.89e-08 M
  IC50, HRG1-β1 induced pHER3, MDA-MB468: 1.07e-08 M
hHER3 full length [10]
  IC50 pHER3 blocking, MCF7: 2.49e-08 M
hHER3 full length [11]
  % competition: 10%
[12]
  % inhibition: 65.2%
  IC50: 0.815 nM
[13]
  koff: 0.0003 s⁻¹ and 0.00031 s⁻¹
hHER3 full length [14]
  % competition: 0%
hHER3 full length [15]
  % competition: 56%
hHER3 full length [16]
  IC50, HRG1-β1 induced pAkt, MCF-7: 4.99e-08 M
  IC50, HRG1-β1 induced pERK1/2, MCF-7: 1e-07 M

B2: HER3MS00045 (VHH)
VHH: EVQLVESGGGLVQPGGSLRLSCAASGFTFSSYPMSWVRQAPGKGPEWVSTVSPGGITTSYADSVKGRFTISRDNSKNTLYLQMNSLRPEDTAVYYCARDLNNRGQGTLVTVSS
notes: 04C07 basic + A46E + L93A; also called HER3MS0045
[17]
  fold lower potency than parental 04C07: 18 fold
[18]
  IC50: 4.91 nM
